In patent US20150344570A1 (published 2015):

T1: FcγRIIb extracellular domain with C-terminal His tag (human, UniProt P31994 43-217)
T1 construct: extracellular domain; Expressed in FreeStyle293 cells; analyte in the SPR assay; also called FcgRIIb; 2b
T1 sequence (looked up): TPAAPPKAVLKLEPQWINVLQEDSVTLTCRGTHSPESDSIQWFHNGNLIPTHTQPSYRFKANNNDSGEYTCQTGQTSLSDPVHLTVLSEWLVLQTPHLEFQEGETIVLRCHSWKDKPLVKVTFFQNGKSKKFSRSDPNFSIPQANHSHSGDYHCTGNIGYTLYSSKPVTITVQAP

T2: FcγRIIa R (FcγRIIa allotype with Arg at position 131), extracellular domain with C-terminal His tag (human, UniProt P12318 34-217)
T2 construct: extracellular domain; made in FreeStyle293 cells; analyte in the Biacore assay; also called FcγRIIa type R; 2aR
T2 sequence (looked up): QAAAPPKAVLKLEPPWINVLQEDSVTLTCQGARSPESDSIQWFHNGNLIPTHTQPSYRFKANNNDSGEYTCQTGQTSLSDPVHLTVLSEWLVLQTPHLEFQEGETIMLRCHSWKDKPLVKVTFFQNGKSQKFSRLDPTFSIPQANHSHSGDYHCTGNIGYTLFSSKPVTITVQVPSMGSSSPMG

T3: FcγRIIb, extracellular domain with C-terminal His tag (human, UniProt P31994 43-217)
T3 construct: extracellular domain; made in FreeStyle293 cells; analyte in the Biacore assay; also called 2b; FcgRIIb
T3 sequence (looked up): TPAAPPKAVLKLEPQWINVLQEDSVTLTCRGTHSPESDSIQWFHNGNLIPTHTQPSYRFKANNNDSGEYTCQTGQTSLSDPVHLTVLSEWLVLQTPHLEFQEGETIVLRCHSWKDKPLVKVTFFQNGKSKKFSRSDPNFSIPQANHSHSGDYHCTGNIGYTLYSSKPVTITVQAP


How the values were obtained:
[1] = target: T4, FcγRIa extracellular domain with C-terminal His tag (human, UniProt P12314 16-292); test: SPR (Biacore), relative binding, HeCon Ab = 100
T4 construct: extracellular domain; Expressed in FreeStyle293 cells; analyte in the SPR assay; also called FcgRI; 1a

[2] = target: T1, FcγRIIb extracellular domain with …; test: SPR (Biacore), relative binding, HeCon Ab = 100
[3] = target: T4, FcγRIa extracellular domain with …; test: SPR (Biacore); He/Con_1a divided by He/Con_2b (FcγRIa against FcγRIIb)
[4] = target: T2, FcγRIIa R (FcγRIIa allotype with Arg at …); test: SPR (Biacore), antibody captured, FcγR analyte; vs GpH7-A5/GpH7-B3/GpL16-k0 = 100
[5] = target: T3, FcγRIIb, extracellular domain with …; test: as above
[6] = target: T2, FcγRIIa R (FcγRIIa allotype with Arg at …); test: SPR (Biacore); He/Con_2aR divided by He/Con_2b, binding to FcγRIIa R against binding to FcγRIIb
Description: The heterodimerized antibodies He Abs in which one of the H chains was introduced with an alteration were assayed for their binding activities to each activating FcγR and inhibitory FcγR according to the method described in Example 4. […] The activating FcγRs in FIGS. 26, 27, 28, and 29 are FcγRIa, FcγRIIa (R), FcγRIIa (H), and FcγRIIIa, respectively.
Analysis of interaction between objective antibody and the FcγR was carried out using Biacore T100 (GE Healthcare). HBS-EP+ (GE Healthcare) was used as the running buffer, and the measurement temperature was set to 25° C. Chips produced by immobilizing the antigen peptide by the amine coupling method to a Series S Sencor Chip CM5 (GE Healthcare), or alternatively, chips produced by allowing preliminarily biotinylated antigen peptides to interact with and immobilize onto a Series S Sensor Chip SA (certified) (GE Healthcare) were used. Antibodies of interest were captured onto an antigen peptide-immobilized chip, and allowed to interact to each FcγR diluted with running buffer. To regenerate and repeatedly use the chip, the antibodies captured on the chip were washed off by reacting 10 mM glycine-HCl, pH 1.5.

T4 sequence (P12314 16-292): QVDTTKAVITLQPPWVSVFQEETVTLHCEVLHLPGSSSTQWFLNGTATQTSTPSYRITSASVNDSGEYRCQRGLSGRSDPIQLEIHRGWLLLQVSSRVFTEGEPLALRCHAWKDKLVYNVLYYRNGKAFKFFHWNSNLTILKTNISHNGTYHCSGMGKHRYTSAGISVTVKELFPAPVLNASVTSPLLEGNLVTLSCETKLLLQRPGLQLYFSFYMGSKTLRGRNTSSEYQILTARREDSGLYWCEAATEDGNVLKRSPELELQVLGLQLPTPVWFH

He/Con_1a [1]	He/Con_2b [2]	He_1a/2b (Ia/IIb) [3]	He/Con_2aR [4]	He/Con_2b [5]	He_2aR/2b (IIaR/IIb) [6]	Binder
94.7 % of HeCon Ab (=100)	66.4 % of HeCon Ab (=100)	1.43 ratio	–	–	–	GpH7-A5/GpH7-B3 variant L235_03V/GpL16-k0 (He Ab) (antibody, human IgG1, kappa, He Ab: mutation in one H chain only) heavy 1: not shown heavy 2: not shown light: DIVMTQSPLSLPVTPGEPASISCQASESLVHSNRNTYLHWYLQKPGQSPQLLIYKVSNRFSGVPDRFSGSGSGTDFTLKISRVEAEDVGVYYCSQNTHVPPTFGQGTKVEIERTVAAPSVFIFPPSDEQLKSGTASVVCLLNNFYPREAKVQWKVDNALQSGNSQESVTEQDSKDSTYSLSSTLTLSKADYEKHKVYACEVTHQGLSSPVTKSFNRGEC
–	–	–	146 relative (HeCon Ab = 100)	96.5 relative (HeCon Ab = 100)	1.51 ratio	GpH7-A5/GpH7-B3 variant G236_02A/GpL16-k0 (antibody, human IgG1, kappa, heterodimerized IgG1, mutation in one H chain only; also called He Ab) heavy 1: not shown heavy 2: not shown light: DIVMTQSPLSLPVTPGEPASISCQASESLVHSNRNTYLHWYLQKPGQSPQLLIYKVSNRFSGVPDRFSGSGSGTDFTLKISRVEAEDVGVYYCSQNTHVPPTFGQGTKVEIERTVAAPSVFIFPPSDEQLKSGTASVVCLLNNFYPREAKVQWKVDNALQSGNSQESVTEQDSKDSTYSLSSTLTLSKADYEKHKVYACEVTHQGLSSPVTKSFNRGEC
92.2 % of HeCon Ab (=100)	54.9 % of HeCon Ab (=100)	1.68 ratio	–	–	–	GpH7-A5/GpH7-B3 variant L235_18N/GpL16-k0 (He Ab) (antibody, human IgG1, kappa, He Ab: mutation in one H chain only) heavy 1: not shown heavy 2: not shown light: DIVMTQSPLSLPVTPGEPASISCQASESLVHSNRNTYLHWYLQKPGQSPQLLIYKVSNRFSGVPDRFSGSGSGTDFTLKISRVEAEDVGVYYCSQNTHVPPTFGQGTKVEIERTVAAPSVFIFPPSDEQLKSGTASVVCLLNNFYPREAKVQWKVDNALQSGNSQESVTEQDSKDSTYSLSSTLTLSKADYEKHKVYACEVTHQGLSSPVTKSFNRGEC
–	–	–	16.2 relative (HeCon Ab = 100)	–	1.69 ratio	GpH7-A5/GpH7-B3 variant L235_12R/GpL16-k0 (antibody, human IgG1, kappa, heterodimerized IgG1, mutation in one H chain only; also called He Ab) heavy 1: not shown heavy 2: not shown light: DIVMTQSPLSLPVTPGEPASISCQASESLVHSNRNTYLHWYLQKPGQSPQLLIYKVSNRFSGVPDRFSGSGSGTDFTLKISRVEAEDVGVYYCSQNTHVPPTFGQGTKVEIERTVAAPSVFIFPPSDEQLKSGTASVVCLLNNFYPREAKVQWKVDNALQSGNSQESVTEQDSKDSTYSLSSTLTLSKADYEKHKVYACEVTHQGLSSPVTKSFNRGEC
90.5 % of HeCon Ab (=100)	48.2 % of HeCon Ab (=100)	1.88 ratio	–	–	–	GpH7-A5/GpH7-B3 variant L235_13S/GpL16-k0 (He Ab) (antibody, human IgG1, kappa, He Ab: mutation in one H chain only) heavy 1: not shown heavy 2: not shown light: DIVMTQSPLSLPVTPGEPASISCQASESLVHSNRNTYLHWYLQKPGQSPQLLIYKVSNRFSGVPDRFSGSGSGTDFTLKISRVEAEDVGVYYCSQNTHVPPTFGQGTKVEIERTVAAPSVFIFPPSDEQLKSGTASVVCLLNNFYPREAKVQWKVDNALQSGNSQESVTEQDSKDSTYSLSSTLTLSKADYEKHKVYACEVTHQGLSSPVTKSFNRGEC
–	–	–	47.9 relative (HeCon Ab = 100)	19 relative (HeCon Ab = 100)	2.52 ratio	GpH7-A5/GpH7-B3 variant G236_05P/GpL16-k0 (antibody, human IgG1, kappa, heterodimerized IgG1, mutation in one H chain only; also called He Ab) heavy 1: not shown heavy 2: not shown light: DIVMTQSPLSLPVTPGEPASISCQASESLVHSNRNTYLHWYLQKPGQSPQLLIYKVSNRFSGVPDRFSGSGSGTDFTLKISRVEAEDVGVYYCSQNTHVPPTFGQGTKVEIERTVAAPSVFIFPPSDEQLKSGTASVVCLLNNFYPREAKVQWKVDNALQSGNSQESVTEQDSKDSTYSLSSTLTLSKADYEKHKVYACEVTHQGLSSPVTKSFNRGEC
94.7 % of HeCon Ab (=100)	54.7 % of HeCon Ab (=100)	1.73 ratio	–	–	–	GpH7-A5/GpH7-B3 variant L235_05P/GpL16-k0 (He Ab) (antibody, human IgG1, kappa, He Ab: mutation in one H chain only) heavy 1: not shown heavy 2: not shown light: DIVMTQSPLSLPVTPGEPASISCQASESLVHSNRNTYLHWYLQKPGQSPQLLIYKVSNRFSGVPDRFSGSGSGTDFTLKISRVEAEDVGVYYCSQNTHVPPTFGQGTKVEIERTVAAPSVFIFPPSDEQLKSGTASVVCLLNNFYPREAKVQWKVDNALQSGNSQESVTEQDSKDSTYSLSSTLTLSKADYEKHKVYACEVTHQGLSSPVTKSFNRGEC
–	–	–	57.3 relative (HeCon Ab = 100)	45.5 relative (HeCon Ab = 100)	1.26 ratio	GpH7-A5/GpH7-B3 variant G236_06M/GpL16-k0 (antibody, human IgG1, kappa, heterodimerized IgG1, mutation in one H chain only; also called He Ab) heavy 1: not shown heavy 2: not shown light: DIVMTQSPLSLPVTPGEPASISCQASESLVHSNRNTYLHWYLQKPGQSPQLLIYKVSNRFSGVPDRFSGSGSGTDFTLKISRVEAEDVGVYYCSQNTHVPPTFGQGTKVEIERTVAAPSVFIFPPSDEQLKSGTASVVCLLNNFYPREAKVQWKVDNALQSGNSQESVTEQDSKDSTYSLSSTLTLSKADYEKHKVYACEVTHQGLSSPVTKSFNRGEC
94 % of HeCon Ab (=100)	42.6 % of HeCon Ab (=100)	2.21 ratio	–	–	–	GpH7-A5/GpH7-B3 variant L235_19Q/GpL16-k0 (He Ab) (antibody, human IgG1, kappa, He Ab: mutation in one H chain only) heavy 1: not shown heavy 2: not shown light: DIVMTQSPLSLPVTPGEPASISCQASESLVHSNRNTYLHWYLQKPGQSPQLLIYKVSNRFSGVPDRFSGSGSGTDFTLKISRVEAEDVGVYYCSQNTHVPPTFGQGTKVEIERTVAAPSVFIFPPSDEQLKSGTASVVCLLNNFYPREAKVQWKVDNALQSGNSQESVTEQDSKDSTYSLSSTLTLSKADYEKHKVYACEVTHQGLSSPVTKSFNRGEC
79.9 % of HeCon Ab (=100)	6.3 % of HeCon Ab (=100)	12.7 ratio	–	–	–	GpH7-A5/GpH7-B3 variant L235_11K/GpL16-k0 (He Ab) (antibody, human IgG1, kappa, He Ab: mutation in one H chain only) heavy 1: not shown heavy 2: not shown light: DIVMTQSPLSLPVTPGEPASISCQASESLVHSNRNTYLHWYLQKPGQSPQLLIYKVSNRFSGVPDRFSGSGSGTDFTLKISRVEAEDVGVYYCSQNTHVPPTFGQGTKVEIERTVAAPSVFIFPPSDEQLKSGTASVVCLLNNFYPREAKVQWKVDNALQSGNSQESVTEQDSKDSTYSLSSTLTLSKADYEKHKVYACEVTHQGLSSPVTKSFNRGEC
–	–	–	53.1 relative (HeCon Ab = 100)	39.3 relative (HeCon Ab = 100)	1.35 ratio	GpH7-A5/GpH7-B3 variant G236_04F/GpL16-k0 (antibody, human IgG1, kappa, heterodimerized IgG1, mutation in one H chain only; also called He Ab) heavy 1: not shown heavy 2: not shown light: DIVMTQSPLSLPVTPGEPASISCQASESLVHSNRNTYLHWYLQKPGQSPQLLIYKVSNRFSGVPDRFSGSGSGTDFTLKISRVEAEDVGVYYCSQNTHVPPTFGQGTKVEIERTVAAPSVFIFPPSDEQLKSGTASVVCLLNNFYPREAKVQWKVDNALQSGNSQESVTEQDSKDSTYSLSSTLTLSKADYEKHKVYACEVTHQGLSSPVTKSFNRGEC
88.7 % of HeCon Ab (=100)	46.8 % of HeCon Ab (=100)	1.9 ratio	–	–	–	GpH7-A5/GpH7-B3 variant L235_14T/GpL16-k0 (He Ab) (antibody, human IgG1, kappa, He Ab: mutation in one H chain only) heavy 1: not shown heavy 2: not shown light: DIVMTQSPLSLPVTPGEPASISCQASESLVHSNRNTYLHWYLQKPGQSPQLLIYKVSNRFSGVPDRFSGSGSGTDFTLKISRVEAEDVGVYYCSQNTHVPPTFGQGTKVEIERTVAAPSVFIFPPSDEQLKSGTASVVCLLNNFYPREAKVQWKVDNALQSGNSQESVTEQDSKDSTYSLSSTLTLSKADYEKHKVYACEVTHQGLSSPVTKSFNRGEC
–	–	–	91.6 relative (HeCon Ab = 100)	35.3 relative (HeCon Ab = 100)	2.6 ratio	GpH7-A5/GpH7-B3 variant G236_03V/GpL16-k0 (antibody, human IgG1, kappa, heterodimerized IgG1, mutation in one H chain only; also called He Ab) heavy 1: not shown heavy 2: not shown light: DIVMTQSPLSLPVTPGEPASISCQASESLVHSNRNTYLHWYLQKPGQSPQLLIYKVSNRFSGVPDRFSGSGSGTDFTLKISRVEAEDVGVYYCSQNTHVPPTFGQGTKVEIERTVAAPSVFIFPPSDEQLKSGTASVVCLLNNFYPREAKVQWKVDNALQSGNSQESVTEQDSKDSTYSLSSTLTLSKADYEKHKVYACEVTHQGLSSPVTKSFNRGEC
98 % of HeCon Ab (=100)	81 % of HeCon Ab (=100)	1.21 ratio	–	–	–	GpH7-A5/GpH7-B3 variant L235_06M/GpL16-k0 (He Ab) (antibody, human IgG1, kappa, He Ab: mutation in one H chain only) heavy 1: not shown heavy 2: not shown light: DIVMTQSPLSLPVTPGEPASISCQASESLVHSNRNTYLHWYLQKPGQSPQLLIYKVSNRFSGVPDRFSGSGSGTDFTLKISRVEAEDVGVYYCSQNTHVPPTFGQGTKVEIERTVAAPSVFIFPPSDEQLKSGTASVVCLLNNFYPREAKVQWKVDNALQSGNSQESVTEQDSKDSTYSLSSTLTLSKADYEKHKVYACEVTHQGLSSPVTKSFNRGEC
